{"source": "patent US20110300138A1", "about": "(published 2011)", "key": {"[1]": {"target": "human TSH receptor (full length, wild type) expressed in CHO cells (human) (UniProt P16473)", "test": "cell-based or functional assay"}, "[2]": {"target": "TSHR260-AP (human)", "test": "TSHR260-AP bridge ELISA (full length TSHR on wells, TSHR260-AP in solution); IgG 250 µg/mL diluted in HBD serum"}, "[3]": {"target": "TSHR260-AP (human)", "test": "TSHR260-AP bridge ELISA (full length TSHR on wells, TSHR260-AP in solution); IgG 0.1 µg/mL diluted in assay buffer"}, "[4]": {"target": "TSHR260-alkaline phosphatase (TSHR260-AP) (human) (UniProt P05187)", "test": "TSHR260-AP bridge ELISA, full length TSHR on wells; 0.01 µg/mL, diluted in assay buffer"}, "[5]": {"target": "TSHR260-alkaline phosphatase (TSHR260-AP) (human) (UniProt P05187)", "test": "TSHR260-AP bridge ELISA, full length TSHR on wells; 100 µg/mL, diluted in HBD"}, "[6]": {"target": "human TSHR (thyroid stimulating hormone receptor) expressed in transfected CHO cells (human) (UniProt P16473)", "test": "cell-based or functional assay"}, "[7]": {"target": "human TSHR expressed in CHO cells (human) (UniProt P16473)", "test": "cell-based or functional assay"}, "[8]": {"target": "human TSH receptor (wild type), expressed on transfected CHO cells (human) (UniProt P16473)", "test": "cell-based or functional assay"}}, "data": [{"binder": "5C9 IgG (antibody, from another filing, V domains shown) VH: EVQLVESGGGLIQPGGSLRLSCAASGFTVSSNYMSWVRQAPGKGLEWVSVTYSGGSTSYADSVKGRFTISRDNSKNTLYLQMNSLRAEDTAVYYCARGGRYCSSISCYARSGCDYWGQGTLVTVSS VL: AIQMTQSPSSLSASVGDRVTITCRASQSISNYLNWYQQKPGKAPKLLIYAASSLQSGVPSRFSGSGSGTDFTLTISSLQPEDFATYYCQQSYSSPSTTFGQGTKLEIK", "values": [{"measurement": "% Inhibition; T4 serum + 100 µg/mL 5C9 IgG", "setting": "[1]", "result": 97.6, "unit": "%"}, {"measurement": "% Inhibition; T5 serum + 100 µg/mL 5C9 IgG", "setting": "[1]", "result": 98.3, "unit": "%"}, {"measurement": "% Inhibition; T6 serum + 100 µg/mL 5C9 IgG", "setting": "[1]", "result": 97.8, "unit": "%"}, {"measurement": "Cyclic AMP concentration; 100 µg/mL 5C9 IgG alone", "setting": "[1]", "result": 1.2, "unit": "pmol/mL"}, {"measurement": "Cyclic AMP concentration; HBD + 100 µg/mL 5C9 IgG", "setting": "[1]", "result": 1.8, "unit": "pmol/mL"}, {"measurement": "Cyclic AMP concentration; T4 serum + 100 µg/mL 5C9 IgG", "setting": "[1]", "result": 1.9, "unit": "pmol/mL"}, {"measurement": "Cyclic AMP concentration; T5 serum + 100 µg/mL 5C9 IgG", "setting": "[1]", "result": 1.1, "unit": "pmol/mL"}, {"measurement": "Cyclic AMP concentration; T6 serum + 100 µg/mL 5C9 IgG", "setting": "[1]", "result": 1.8, "unit": "pmol/mL"}, {"measurement": "Mean absorbance at 405 nm (absorbance at 405 nm)", "setting": "[2]", "result": 0.058}, {"measurement": "Mean absorbance at 405 nm (absorbance at 405 nm)", "setting": "[3]", "result": -0.013}, {"measurement": "Mean absorbance at 405 nm (absorbance at 405 nm)", "setting": "[4]", "result": -0.001}, {"measurement": "Mean absorbance at 405 nm (absorbance at 405 nm)", "setting": "[5]", "result": 0.027}, {"measurement": "% Inhibition; 3 ng/mL M22 IgG + 0.001 µg/mL 5C9 IgG", "setting": "[6]", "result": 7.7, "unit": "%"}, {"measurement": "% Inhibition; 3 ng/mL M22 IgG + 0.01 µg/mL 5C9 IgG", "setting": "[6]", "result": 25.2, "unit": "%"}, {"measurement": "% Inhibition; 3 ng/mL M22 IgG + 0.1 µg/mL 5C9 IgG", "setting": "[6]", "result": 92.8, "unit": "%"}, {"measurement": "% Inhibition; 3 ng/mL M22 IgG + 1 µg/mL 5C9 IgG", "setting": "[6]", "result": 97.1, "unit": "%"}, {"measurement": "% Inhibition; 3 ng/mL M22 IgG + 10 µg/mL 5C9 IgG", "setting": "[6]", "result": 94.4, "unit": "%"}, {"measurement": "% Inhibition; 3 ng/mL M22 IgG + 100 µg/mL 5C9 IgG", "setting": "[6]", "result": 97.1, "unit": "%"}, {"measurement": "Cyclic AMP concentration; 3 ng/mL M22 IgG + 0.001 µg/mL 5C9 IgG", "setting": "[6]", "result": 41, "unit": "pmol/mL"}, {"measurement": "Cyclic AMP concentration; 3 ng/mL M22 IgG + 0.01 µg/mL 5C9 IgG", "setting": "[6]", "result": 33.2, "unit": "pmol/mL"}, {"measurement": "Cyclic AMP concentration; 3 ng/mL M22 IgG + 0.1 µg/mL 5C9 IgG", "setting": "[6]", "result": 3.2, "unit": "pmol/mL"}, {"measurement": "Cyclic AMP concentration; 3 ng/mL M22 IgG + 1 µg/mL 5C9 IgG", "setting": "[6]", "result": 1.3, "unit": "pmol/mL"}, {"measurement": "Cyclic AMP concentration; 3 ng/mL M22 IgG + 10 µg/mL 5C9 IgG", "setting": "[6]", "result": 2.5, "unit": "pmol/mL"}, {"measurement": "Cyclic AMP concentration; 3 ng/mL M22 IgG + 100 µg/mL 5C9 IgG", "setting": "[6]", "result": 1.3, "unit": "pmol/mL"}, {"measurement": "Cyclic AMP concentration; 100 µg/mL 5C9 IgG", "setting": "[6]", "result": 1.7, "unit": "pmol/mL"}, {"measurement": "% Inhibition; 5C9 IgG 0.003 µg/mL + 3 ng/mL pTSH", "setting": "[7]", "result": 10.4, "unit": "%"}, {"measurement": "% Inhibition; 5C9 IgG 0.0075 µg/mL + 3 ng/mL pTSH", "setting": "[7]", "result": 76.5, "unit": "%"}, {"measurement": "% Inhibition; 5C9 IgG 0.01 µg/mL + 3 ng/mL pTSH", "setting": "[7]", "result": 1, "unit": "%"}, {"measurement": "% Inhibition; 5C9 IgG 0.025 µg/mL + 3 ng/mL pTSH", "setting": "[7]", "result": 26, "unit": "%"}, {"measurement": "% Inhibition; 5C9 IgG 0.05 µg/mL + 3 ng/mL pTSH", "setting": "[7]", "result": 62.8, "unit": "%"}, {"measurement": "% Inhibition; 5C9 IgG 0.1 µg/mL + 3 ng/mL pTSH", "setting": "[7]", "result": 81.8, "unit": "%"}, {"measurement": "% Inhibition; 5C9 IgG 0.3 µg/mL + 3 ng/mL pTSH", "setting": "[7]", "result": 87.5, "unit": "%"}, {"measurement": "% Inhibition; 5C9 IgG 1 µg/mL + 3 ng/mL pTSH", "setting": "[7]", "result": 92.3, "unit": "%"}, {"measurement": "% Inhibition; 5C9 IgG 3 µg/mL + 3 ng/mL pTSH", "setting": "[7]", "result": 92.8, "unit": "%"}, {"measurement": "% Inhibition (constitutive activity); 0.1 µg/mL 5C9 IgG", "setting": "[8]", "result": 0, "unit": "%"}, {"measurement": "% Inhibition (constitutive activity); 0.2 µg/mL 5C9 IgG", "setting": "[8]", "result": 0, "unit": "%"}, {"measurement": "% Inhibition (constitutive activity); 1 µg/mL 5C9 IgG", "setting": "[8]", "result": 45.9, "unit": "%"}, {"measurement": "% Inhibition (constitutive activity); 2 µg/mL 5C9 IgG", "setting": "[8]", "result": 45.3, "unit": "%"}, {"measurement": "% Inhibition; 5C9 IgG 0.01 µg/mL + T11", "setting": "[8]", "result": 4.3, "unit": "%"}, {"measurement": "% Inhibition; 5C9 IgG 0.1 µg/mL + T11", "setting": "[8]", "result": 19.8, "unit": "%"}, {"measurement": "% Inhibition; 5C9 IgG 1 µg/mL + T11", "setting": "[8]", "result": 23, "unit": "%"}, {"measurement": "% Inhibition; 5C9 IgG 10 µg/mL + T11", "setting": "[8]", "result": 13.9, "unit": "%"}, {"measurement": "% Inhibition; 5C9 IgG 100 µg/mL + T11", "setting": "[8]", "result": 11.1, "unit": "%"}, {"measurement": "% Inhibition; pTSH 3 ng/mL + 0.001 µg/mL 5C9", "setting": "[8]", "result": 0.2, "unit": "%"}, {"measurement": "% Inhibition; pTSH 3 ng/mL + 0.01 µg/mL 5C9", "setting": "[8]", "result": 0, "unit": "%"}, {"measurement": "% Inhibition; pTSH 3 ng/mL + 0.1 µg/mL 5C9", "setting": "[8]", "result": 78.7, "unit": "%"}, {"measurement": "% Inhibition; pTSH 3 ng/mL + 1 µg/mL 5C9", "setting": "[8]", "result": 93.5, "unit": "%"}, {"measurement": "% Inhibition; pTSH 3 ng/mL + 10 µg/mL 5C9", "setting": "[8]", "result": 98, "unit": "%"}, {"measurement": "% Inhibition; pTSH 3 ng/mL + 100 µg/mL 5C9", "setting": "[8]", "result": 99.2, "unit": "%"}, {"measurement": "Cyclic AMP concentration; 100 µg/mL 5C9 alone", "setting": "[8]", "result": 0.2, "unit": "pmol/mL"}, {"measurement": "Cyclic AMP concentration; 5C9 IgG 0.01 µg/mL + T11", "setting": "[8]", "result": 24.1, "unit": "pmol/mL"}, {"measurement": "Cyclic AMP concentration; 5C9 IgG 0.1 µg/mL + T11", "setting": "[8]", "result": 20.2, "unit": "pmol/mL"}, {"measurement": "Cyclic AMP concentration; 5C9 IgG 1 µg/mL + T11", "setting": "[8]", "result": 19.4, "unit": "pmol/mL"}, {"measurement": "Cyclic AMP concentration; 5C9 IgG 10 µg/mL + T11", "setting": "[8]", "result": 21.7, "unit": "pmol/mL"}, {"measurement": "Cyclic AMP concentration; 5C9 IgG 100 µg/mL + T11", "setting": "[8]", "result": 22.4, "unit": "pmol/mL"}, {"measurement": "Cyclic AMP concentration; 5C9 IgG 100 µg/mL alone", "setting": "[8]", "result": 0.9, "unit": "pmol/mL"}, {"measurement": "Cyclic AMP concentration; pTSH 3 ng/mL + 0.001 µg/mL 5C9", "setting": "[8]", "result": 64.1, "unit": "pmol/mL"}, {"measurement": "Cyclic AMP concentration; pTSH 3 ng/mL + 0.01 µg/mL 5C9", "setting": "[8]", "result": 64.6, "unit": "pmol/mL"}, {"measurement": "Cyclic AMP concentration; pTSH 3 ng/mL + 0.1 µg/mL 5C9", "setting": "[8]", "result": 13.7, "unit": "pmol/mL"}, {"measurement": "Cyclic AMP concentration; pTSH 3 ng/mL + 1 µg/mL 5C9", "setting": "[8]", "result": 4.2, "unit": "pmol/mL"}, {"measurement": "Cyclic AMP concentration; pTSH 3 ng/mL + 10 µg/mL 5C9", "setting": "[8]", "result": 1.3, "unit": "pmol/mL"}]}]}
